Values of other authors in PMC3164524.

Molecular target: pYAQL peptide
Assay: SPR

Kd: 260 nM
Substance: SHP-2 N-SH2 (from UniProt Q06124)
